Tests used:
[1] = target: gH T62A/gL, recombinant ectodomain (Epstein Barr virus)
[2] = target: gH/gL on EBV virions (Epstein Barr virus, UniProt P03231 19-706; P03212 23-137); assay: cell-based or functional assay
[3] = target: T1, EBV gH/gL heterodimer, recombinant ectodomain (Epstein Barr virus); assay: BLI kinetics, pH 5.0, ligand AMMO1 Mab, analyte gH/gL; KD M x10^-9
T1 construct: range 19-679;range 24-137

[4] = target: T1, EBV gH/gL heterodimer, recombinant …; assay: BLI kinetics, pH 7.4, ligand AMMO1 Mab, analyte gH/gL; KD M x10^-9
[5] = target: T1, EBV gH/gL heterodimer, recombinant …; assay: BLI kinetics, pH 5.0, ligand AMMO1 Mab, analyte gH/gL; KA M^-1 x10^7
[6] = target: T1, EBV gH/gL heterodimer, recombinant …; assay: BLI kinetics, pH 7.4, ligand AMMO1 Mab, analyte gH/gL; KA M^-1 x10^7
[7] = target: T1, EBV gH/gL heterodimer, recombinant …; assay: BLI kinetics, pH 5.0, ligand AMMO1 Mab, analyte gH/gL; kon (1/Ms) x10^5
[8] = target: T1, EBV gH/gL heterodimer, recombinant …; assay: BLI kinetics, pH 7.4, ligand AMMO1 Mab, analyte gH/gL; kon (1/Ms) x10^5
[9] = target: T1, EBV gH/gL heterodimer, recombinant …; assay: BLI kinetics, pH 5.0, ligand AMMO1 Mab, analyte gH/gL; koff (1/s) x10^-3
[10] = target: T1, EBV gH/gL heterodimer, recombinant …; assay: BLI kinetics, pH 7.4, ligand AMMO1 Mab, analyte gH/gL; koff (1/s) x10^-3

B1: AMMO1 (antibody, V domains shown)
VH: QVQLVQSGADVKKPGASVKVSCKASGYTFIHFGISWVRQAPGQGLEWMGWIDTNNGNTNYAQSLQGRVTMTTDTSTGTAYMELRSLSTDDTAVYFCARALEMGHRSGFPFDYWGQGVLVTVSP
VL: SYELTQPPSVSVAPGQRATITCGGHNIGAKNVHWYQQKPGQAPVLVIQYDSDRPSGIPERFSGSNSGSTATLTISRVEAGDEADYYCQVWDSGRGHPLYVFGGGTKVTVL
notes: also called WT AMMO1; anti-gH/gL MAb AMMO1
Question: How did the Ka [1] turn out when B1 was run?
Answer: The Ka was 5.85e+09 M⁻¹.

Question: What about the Kd [1] of the same binder?
Answer: Its Kd is 0.17 nM.

Question: What about the koff [1] of the same binder?
Answer: The koff was 0.000135 s⁻¹.

Question: What about the kon [1] of the same binder?
Answer: The kon was 789000 M⁻¹ s⁻¹.

Question: What about the “neutralization of B95.8/F EBV infection of B (Raji) cells, IC50” value [2] of the same binder?
Answer: The value was 0.16 µg/mL.

Question: What about the Kd [3] of the same binder?
Answer: The Kd was 0.13 nM.

Question: And the Kd [4]?
Answer: Its Kd is 0.12 nM.

Question: What about the Ka [5] of the same binder?
Answer: The Ka was 7.84e+09 M⁻¹.

Question: And the Ka [6]?
Answer: The Ka was 8.63e+09 M⁻¹.

Question: What about the kon [7] of the same binder?
Answer: Its kon is 573000 M⁻¹ s⁻¹.

Question: What about the kon [8] of the same binder?
Answer: The kon was 334000 M⁻¹ s⁻¹.

Question: What about the koff [9] of the same binder?
Answer: Its koff is 7.31e-05 s⁻¹.

Question: And the koff [10]?
Answer: The koff was 3.87e-05 s⁻¹.

Reference: patent publication US20200164059A1 (FRED HUTCHINSON CANCER RESEARCH CENTER, published 2020)
